Assay results taken from patent publication US20160340704A1, “METHOD OF MAKING A BENZYLISOQUINOLINE ALKALOID (BIA) METABOLITE, ENZYMES THEREFORE” (VALORBEC SOCIÉTÉ EN COMMANDITE, priority 2014, published 2016).

B1: EX54: CYP719 from Chelidonium majus, SEQ ID NO: 333 (protein, listed as Chelidonium majus)
chain: MEESFWLVAATVLVVFVVAKLLFRKSSSISTMEWPAGPKTLPIIGNLHQLGGAALHVVLANLAKVYGSVMTIWVGAWRPMIVISDIDKAWEVLVNKSSDYSARSLPEITRIISANWKNIMTSDSGPFWQNLRKGLQGGALSPHNVMSQYQLQERDMQNLIKTMRVEASKNNGRIKPLDHLKQETVRLLSRLIFGQDFNDEKLVVGMHHALDDLVRISGYASLADAFKVAENLPSHKKSIREVHELKRRVENLVRPHIVSNPPTNTYLNFLLSQNFSEDLIISAILEVYDLGVDSTASTTVWALTFLVREQKVQEKLYQEIKNLTGGRSTVKVEEVSKMPYLQAVMKETMRMKPIAPMAIPHTAARETSLMGKKIDKGTVVMVNLYAIHHNPNIFPEPYKFMPERFLHGEEQNGGNIKEMEQSLLPFSAGMRICAGMELGKLQLGFALASLVNAFKWECAADGKLPDLSEDHCFILLMKNPLEAKITPRTH
B2: EX94: N-truncated Papaver somniferum stylopine synthase (CYP719A20) with lettuce germacrene A oxidase N-terminal domain, SEQ ID NO: 373 (protein, listed as Papaver somniferum)
chain: MELSITTSIALATIVFFLYKLATRPKSTKKQLPEASRLPIIGHKRKKSSTMVWPTGPKTLPIIGNMHVLGGTALQVVLHNLAKIHGNVMTIWIGSWRPVIVVSDIDRAWEVLVNKSSDYSARDMPEITKIISADWKTISTSDSGPGWSNLRKGLQNVALSPHNLAAQSQFQEKDITKMIQSLKKEAASNNGIVKPIDHLKKATLRLISRLIFGQDFDDDKYVDDMHHAIEELIRVSGYAQLAEAFYYAKYLPSHKKAVRDVEEANQRVKKLVRPFLSLNPPTNTYLHFLNSQKYDEEVIIFAIFEAYLLGVDSTSLTTAWALAFLIREPVVQDKLYQELKNLTAKNDCEIVKVEDLNKLQYLQAVLKETMRMKPIAPLAIPHKACRDTSLKGNKIDQGTQVMVNIYALHHNEKVWKEPFKFMPERFLQTQDVVNGKGMEQSLLPFSAGMRICAGMELGKLQFSFSLANLVNAFEWSCVSDGVLPDMSDQLGFVLLMKTPLQARIVPRV
B3: EX72: CYP719 from Nandina domestica, SEQ ID NO: 351 (protein, listed as Nandina domestica)
chain: MDPMSLWAAIAIVLVMTLLVLLQTRTKSLPSSSTQWPTGPKTLPIIGNLHQLEGDVFHVALAKLAKMHGDIMTIWIGSWRPVIVISDYDKAWEVLVNKSSDYSARDMPEITKIASAGWRTISLSSSGPFWHTLRKGLQNGPFGPLNVSAQILSQERDMRRMIRDMQEEADINGGIVKPLGHLKKATVGLLTRLIFGQNFDDDSFIESIHHETEELIRISGYARLAEAFSYAKYLPSHRRAVKESYECKHRVEELVKPLLSSNPPKNSYLNFLQSQDYPEEVIIFCIFEIYLLGVDSTSSTTTWALAFLIHEPAVQEKLYQEVKCITNGDGGLVKAGDLSKFQYLQAVMKETMRMKPIAPLAIPHTTSKDTTLMGTKVAKGTRIMVNLYALHHNPNIWSEPFKFMPERFLQEQFNGVGGDANVKAIEQSFLPFSAGMRICAGMDLGKLQFSFALANLVNAFKWTTVADGKFPDMNEELSFVLLMKTPLEARIVPRKP
B4: EX50: CYP719 from Coptis japonica, Q948Y1.1, SEQ ID NO: 329 (protein, listed as Coptis japonica)
chain: MEMNPLLVCATVAIVFATTTIIRILFSSSSLPQMKWPSGPRKLPIIGNLHQLGDDVLHVALAKLAKVHGSVMTIWIGSWRPVIVISDIEKAWEVLVNKSADYGARDMPEITKIASASWHTISTSDAGSFWQNVRKGLQSGAMGPLNVAAQNQYQERDMKRLIKAMSDEAANNNGIVKPLDHIKKNTVRLLTRLIFGQAFDDNKFIESMHYEIEDIIRISGYARLAEAFYYAKYLPSHKKAEREAFLVKCRVEELVRPLLSSKPPTNSYLYFLLSQNFEEEVIIFCIFELYLLGVDSTSSTTTWALAYLIREQGAQEKLYQDIRMTLGDVDLVKIEDVNKLKYLQGVVKETMRMKPIAPLAIPHKTAKETTLMGTKVAKGTRIMVNLYALHHNQNIWPDPYKFMPERFLEGETGTAYNKAMEQSFLPFSAGMRICAGMDLGKLQFAFALANLVNAFKWSCVEEGKLPDMGEELSFVLLMKTPLEARIAGRNV
B5: EX60: CYP719 from Eschscholzia californica, BAG75114.1, SEQ ID NO: 339 (protein, listed as Eschscholzia californica)
chain: MEEMKFLMMNNPWVLTATFTTLLISIFLFVTRKTSNTEWPNGPKTLPIIGNMHLLGGTKALQVILHNLAKVYGGVMTIWIGSWRPVIIVSDIERAWEVLVNKSSDYSARELPEIIKYNAANFRTIATCDSGPHWSNLRKGLQNVALSPHNLAAQFQFQEKDITKMIQNLEVEAKNNNGIVQPLDHLKKATIRLISRLIFGQDFDEDTYVEKLHHTIDELIRMSGYAQLAEAFYYARYLPNHKKAVNHAAKTKQIVTHLMRPFLSLNPPTNSYLHFLQSQNYDEELIIFSIFEVYLLGVDSTSSTTAWALAYLVREPNVQETLYQELDNFAKQNDRKILKVEDINKLQYLQAVTKETMRMKPIAPLAIPHKASRDTTLMGKKVEKGTKVMVNLHALHHNENVFNDPYKFMPERFLKSYQGAKAKAMEQSYLPFSAGMRICGGMEVGKLQFGFALANLAYAFKWSCAVNGVLPDMSDELGFVLFMKTPLEARIVRRN
B6: EX98: CYP719 from Stylophorum diphyllum, SEQ ID NO: 377 (protein, listed as Stylophorum diphyllum)
chain: MEESFWLVTATVVVVFVIAKLQFRKSSSISTMEWPAGPKTLPIIGNLHQLGGAALHVVLANLAKAYGSVMTIWVGSWRPMIVISDFDKAWEVLVNKSSDYSARSLPEITRIISANWKNIMTSDSGPFWQNLRKGLQSGALSPHNVMSQYQLQERDMQNLIKTMRVEAFKNNGRIKPLDHLKQETVRLLSRLIFGQDFNDEKLVVGMHHALDDLVRISGYASLADAFKFAENLPSHKKSIREVHELKKRVENLVRPHIVSNPPTNTYLNFLQSQNFSEDLIISAILEVYDLGVDSTASTTVWALTFLVRELKVQEKLYQEIKNLTGGRSTVKVEEVSKMPYLQAVMKETMRMKPIAPMAIPHTAARETSLMGKKIDKGTVVMVNLYAIHHNPNIFPEPYKFMPERFLHGEEQNGGNIKEMEQSLLPFSAGMRICAGMELGKLQLGFALASLVNAFKWECAVDGKLPDMSEDHCFILLMKNPLEAKITPRTH

Assays:
nandinine = experiment: CYP719 Ring B closure of nandinine to stylopine in GC1333; format: cell-based, Saccharomyces cerevisiae
Description: (§1) FIG. 11A-B: showing conversion of (S)-cheilanthifoline (FIG. 11A) or (S)-nandinine (FIG. 11B) to (S)-stylopine by purchased CYP719s. Plasmids harboring CYP719s were transformed into GC1333 containing an integrated PsCPR. Strains were incubated with the appropriate BIA overnight, and then total BIAs were extracted and total molar ratios were compared. PsSPSΔN was used as a control.
(§2) The 10 CYP719s with 95% activity on Ring A of scoulerine and the 10 CYP719s with activity on Ring B of scoulerine were tested for activity on cheilanthifoline and nandinine, respectively, in order to generate a branched stylopine synthesis pathway. […] CYP719s PsCFS and EX101, capable of converting >98% of scoulerine to cheilanthifoline and nandinine, respectively, were incubated with scoulerine. After 16 h, cells were pelleted and the supernatant fraction was collected. The supernatant was then applied to fresh yeast strains in order to supplement them with either TE containing nandinine or cheilanthifoline as necessary.

[1] = Microsomal cytochrome P450 enzyme assay of PsCFS and PsSPSΔN incubated with (S)-scoulerine; format: biochemical, Papaver somniferum; settings: microsomes with PsCPR; 125 μM (S)-scoulerine, 500 μM NADPH
Description: The pESC-CPR vector encoding opium poppy cytochrome P450 reductase (PsCPR) fused to a c-Myc tag was used for the heterologous expression of plant proteins in S. cerevisiae^25. The amplicon was inserted into NotI and SpeI restriction sites of pESC-CPR in-frame with a FLAG-tag sequence yielding pESC-CPR/CFS. […]
Analysis of enzyme assays was performed using an Agilent™ 1200 liquid chromatography system equipped with a 6410 triple-quadrupole mass spectrometer (Agilent Technologies; Santa Clara, Calif.). […] Scoulerine, cheilanthifoline, and stylopine were detected in multiple reaction monitoring (MRM) mode using a collision energy of 25 eV and monitored transitions of m/z 328→178, 326→178 and 324→176, respectively.
Constructs for the heterologous expression of PsCFS and PsSPS in S. cerevisiae were assembled in a vector harbouring PsCPR (Table 1 above). […] No conversion of scoulerine was detected in the negative control. […]

scoulerine = experiment: CYP719s in GC1316 (integrated PsCPR and PsCFS) supplemented with scoulerine; format: cell-based, Saccharomyces cerevisiae; settings: CYP719 expressed with PsCFS and PsCPR
Excerpt: Plasmids harboring CYP719s were transformed into either GC1333 containing an integrated PsCPR (FIG. 10A) or GC1316 containing an integrated PsCPR and an integrated PsCFS (FIG. 10B). Strain GC1333, harboring PsCPR integrated into the chromosome, was transformed with pBOT plasmids, with GFP removed, harboring individual CYP719s (CYP719 EX41-105). (See Tables 7-8 below presenting the nature and activity of these CYP719s).
Plasmids harboring individual CYP719s were transformed into strain GC1316, which harbored PsCPR and PsCFS integrated into the genome. Strains were supplemented with scoulerine and after 16 hours total BIAs were extracted and the molar ratio was compared (FIG. 10B). The four possible BIAs that could be extracted were scoulerine, the single Ring A product nandinine, the single Ring B product cheilanthifoline, and the double Ring A, Ring B product stylopine.

cheilanthifoline = experiment: CYP719 Ring A closure of cheilanthifoline to stylopine in GC1333; format: cell-based, Saccharomyces cerevisiae
Description: as §1, §2

Molecule | conversion of nandinine to stylopine (nandinine) [%] | residual cheilanthifoline (scoulerine) | also measured
B1 | > 98 | – | –
B2 | – | – | conversion of (S)-scoulerine by microsomal proteins (LC-MS products) [1]: converted to cheilanthifoline and stylopine
B3 | – | residual cheilanthifoline was detected | –
B4 | – | residual cheilanthifoline was detected | conversion of cheilanthifoline to stylopine (cheilanthifoline): > 98%
B5 | – | residual cheilanthifoline was detected | –
B6 | > 98 | – | –
